{"source": "patent US20230091315A1", "about": "(CISBIO BIOASSAYS, published 2023)", "binders": {"B1": {"name": "antibody DSV36S (antibody, V domains shown)", "VH": "EVQLQQSGAELVRPGALVKLSCKASGFNIKDYYMHWVKQRPEQGLEWIGWIDPENGNTIYDPKFQGKASITADTSSNTAYLQLSSLTSEDTAVYYCTRGGGYYSDWYFDVWGAGTTVTVSS", "VL": "QIVLTQSPAIMSASPGEKVTMTCSASSSVSYMHWYQQKSGTSPKRWIYDTSKLASGVPARFSGSGSGTSYSLTISSMEAEDAATYYCQQWSSNPPITFGAGTKLELK", "notes": "Used unlabeled or labeled with d2 (acceptor) or Lumi4Tb (donor); also called DSV36S-d2; DSV36S-Lumi4Tb"}}, "key": {"[1]": {"molecular_target": "T1, human recombinant G-protein alphai1 fused at the N-terminal with a Tag Twin-Strep-tag (TST-G protein alphai1) (human, UniProt B2RSH2 1-354 (mouse entry))", "T1 construct": "Purified protein made in Sf9 insect cells; also called G-protein αi1; protein Gαi1", "T1 sequence (B2RSH2 whole entry, the tested form may be a part)": "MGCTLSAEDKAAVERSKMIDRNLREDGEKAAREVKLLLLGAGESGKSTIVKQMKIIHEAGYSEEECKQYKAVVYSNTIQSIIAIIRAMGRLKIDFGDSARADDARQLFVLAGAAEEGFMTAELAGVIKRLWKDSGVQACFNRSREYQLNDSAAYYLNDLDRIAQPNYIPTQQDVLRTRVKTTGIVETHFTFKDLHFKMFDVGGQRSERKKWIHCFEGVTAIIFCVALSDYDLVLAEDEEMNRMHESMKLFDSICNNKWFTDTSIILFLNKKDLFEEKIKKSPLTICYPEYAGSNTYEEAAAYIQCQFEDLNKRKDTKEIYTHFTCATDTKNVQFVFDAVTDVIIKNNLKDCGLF", "experiment": "HTRF (TR-FRET) titration of antibody-d2 on 2.5 nM Twin-Strep-tagged Gαi1 with anti-Twin-Strep-tag-Lumi4 Tb; condition: GDP 10 µM", "protocol": "(§1) These two reagents were prepared in one and the same solution and were preincubated for 30 minutes at room temperature before being distributed in the wells. The antibodies DSV36S-d2, DSV38S-d2 and SC13533-d2 were prepared 4× for final concentrations in the wells between 0.01 and 10 nM depending on the antibodies.\n(§2) Moreover, the antibody titration curves obtained make it possible to calculate the affinity (Kd) of these different antibodies for the G-protein αi1. This was carried out using the GraphPad Prism software by applying a “one site specific binding” model to the HTRF data."}, "[2]": {"molecular_target": "T1, human recombinant G-protein alphai1 …", "experiment": "HTRF (TR-FRET) titration of antibody-d2 on 2.5 nM Twin-Strep-tagged Gαi1 with anti-Twin-Strep-tag-Lumi4 Tb; condition: Buffer only", "protocol": "as §1, §2"}, "[3]": {"molecular_target": "T1, human recombinant G-protein alphai1 …", "experiment": "HTRF competition on Gαi1 + GTPgS: unlabeled antibody varied against DSV36S-d2 (10 nM), detection with anti-Twin-Strep-tag-Lumi4 Tb", "protocol": "(§3) These two reagents were prepared in one and the same solution and were preincubated for 30 minutes at room temperature before being distributed in the wells. The cold antibodies DSV36S, DSV38S, DSV26S, DSV3S, and DSV39S were prepared 4× for final concentrations in the wells between 0.001 and 1 μM. The antibody DSV36S-d2 was prepared 4× for a final concentration of 10 nM.\n(§4) 1) 10 μl of the preincubated mixture of G-protein αi1 +GTPgS was put in each well, 2) 5 μl of the unlabeled antibodies DSV36S, DSV38S, DSV26S, DSV3S, and DSV39S was added to each well, 3) The plates were incubated for 30 minutes at room temperature, 4) 5 μl of the anti Twin-Strep-tag-Lumi4 Tb antibody and of the antibody DSV36S-d2 were added to each well."}, "[4]": {"molecular_target": "T1, human recombinant G-protein alphai1 …", "experiment": "HTRF competition on Gαi1 + GTPgS: unlabeled antibody varied against 36S-d2 (DSV36S-d2, 10 nM), detection with anti-Twin-Strep-tag-Lumi4 Tb", "protocol": "as §3, §4"}, "[5]": {"molecular_target": "T1, human recombinant G-protein alphai1 …", "experiment": "HTRF (TR-FRET) titration of antibody-d2 on 2.5 nM Twin-Strep-tagged Gαi1 with anti-Twin-Strep-tag-Lumi4 Tb; condition: GTP 10 µM as printed (the protocol names GTPgS)", "protocol": "as §1, §2"}}, "data": [{"binder": "B1", "values": [{"measurement": "Kd", "setting": "[1]", "result": 0.48, "unit": "nM"}, {"measurement": "Kd", "setting": "[2]", "result": 0.82, "unit": "nM"}, {"measurement": "IC50 (read off the curve)", "setting": "[3]", "result": "~0.5", "unit": "nM"}, {"measurement": "IC50 (read off the curve)", "setting": "[4]", "result": "~0.5", "unit": "nM"}, {"measurement": "Kd", "setting": "[5]", "result": 0.31, "unit": "nM"}]}]}
